The text below walks through data of paper doi:10.1101/2023.02.23.529489.

Test in all cases: flow cytometry on cells
On the technique in general: Flow cytometry measures light scatter and fluorescence of single cells or particles in a stream.

Test [1] has as its target full-length human CD45RABC (human) (UniProt P08575).
The target in test [2] is CD45RO ECD-GFP (extracellular domain and transmembrane region of CD45RO, phosphatase domains replaced by GFP) (human).
Test [3] deals with full-length human CD45RO (human) (UniProt P08575).
The target in test [4] is CD45RABC ECD-GFP (extracellular domain and transmembrane region of CD45RABC, phosphatase domains replaced by GFP) (human).

The term EC50 denotes the midpoint of the concentration-response curve. Lower therefore signals greater potency.

Consider “sec49K-His (recombinant N-terminal ectodomain of HAdV-D64 E3/49K, residues 20-353, from insect cells) (domain or fragment)”, for which the EC50 was 1.26 nM in test [1], 0.54 nM in test [2], 1.35 nM in test [3] and 0.55 nM in test [4].
